Publication PMC8586658 (Cancer Science, 2021)

Biological target: T1, mouse IL‐2Rα on 293T cells (293Tα) (mouse, UniProt P01590 22-268)
T1 sequence: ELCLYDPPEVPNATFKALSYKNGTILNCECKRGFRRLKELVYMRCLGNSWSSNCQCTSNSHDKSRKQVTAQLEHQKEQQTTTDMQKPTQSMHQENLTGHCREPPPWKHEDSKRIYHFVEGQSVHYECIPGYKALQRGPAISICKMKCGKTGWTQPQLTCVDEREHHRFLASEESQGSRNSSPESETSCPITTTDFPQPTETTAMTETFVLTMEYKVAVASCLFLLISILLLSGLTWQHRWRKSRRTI
Experiment: binding of NanoLuc fusion proteins to cells

mouse 293Tα/293T ratio: 1.8 ratio
B1: Mutakine‐6 (MK‐6), IL‐2 K35A/R38A/K43A/Y45A on the MK‐0 template, fused to NanoLuc (ligand)
chain: APASSSTKKTQLQLEHLLLDLQMILNGINNYKNPALTAMLTFAFAMPKKATELKHLQCLEEELKPLEEVLNLAQSKNFHLRPRDLISNINVIVLELKGSETTFMCEYADETATIVEFLNRWITFAQSIISTLT
